B1: recombinant mouse CD47 (receptor, UniProt Q61735 19-140, looked up)
chain: QLLFSNVNSIEFTSCNETVVIPCIVRNVEAQSTEEMFVKWKLNKSYIFIYDGNKNSTTTDQNFTSAKISVSDLINGIASLKMDKRDAMVGNYTCEVTELSREGKTVIELKNRTVSWFSPNEK
notes: CD47, mouse, recombinant; UniProt Q61735 is printed for the in silico model; check the vendor's data sheet; also called rmCD47; source: bought: Abcam (Cat. No. AB231160)
B2: recombinant mouse (rm)Siglec-G (receptor, UniProt Q80ZE3 18-543, looked up)
chain: QMESYFLQVQRIVKAQEGLCIFVPCSFSSPEGKWLNRSPLYGYWFKGIRKPSLSFPVATNNKDKVLEWEARGRFQLLGDISKKNCSLLIKDVQWGDSTNYFFRMERGFERFSFKEEFRLQVEALTQKPDIFIPEVLEPGEPVTVVCLFSWTFNQCPAPSFSWMGDAVSFQESRPHTSNYSVLSFIPGLQHHDTELTCQLDFSRMSTQRTVRLRVAYAPRSLAISIFHDNVSVPDLHENPSHLEVQQGQSLRLLCTADSQPPATLSWVLEDQVLSWSSPVGSRTLALELPWVKAGDSGHYTCQAENRLGSQQHTLDLSVLYPPQDLRVTVSQANRTVLEILRNAISLPVLEGQSLCLVCVTYSNPPANVSWAWVTQTLIPIQSSEPGVLELPLVQREHEGEFTCAAQNPLGAQRISLSLSVHYPPQMSSPSCSWEAKGLHCNCSSRAWPAPSLRWRLGEGLLEGNSSNASFTVTFSSLGPWVNSSLSLLQELGPSLWLSCESWNTHGAQTTSVLLLPDKDSATAFSK
notes: Siglec-G, mouse, recombinant; UniProt Q80ZE3 is printed for the in silico model; check the vendor's data sheet; source: bought: R&D Systems (Cat. No. 10103-SL-050)

Experiment [1] has as its target B2. The experiment in a line: SPR; OpenSPR (Nicoya), HS-Carboxyl sensor; rmCD47 immobilised by EDC/NHS coupling; rmSiglec-G as analyte at 100, 250 and 500 nM; PBS 0.05% P20, pH 7.4; 40 uL/min; 20°C; global fit for 1:1 binding. The note with it: both partners purified. For orientation: SPR reads the build-up and loss of mass on a sensor chip optically.
The target in experiment [2] is rmCD47. As to the kind of experiment: Surface plasmon resonance: rmSiglec-G binding to immobilized rmCD47. The note with it: SPR (OpenSPR), rmCD47 immobilized on HS-carboxyl sensor, rmSiglec-G analyte 100, 250 and 500 nM, PBS 0.05% P20, pH 7.4, 20°C, 1:1 global fit; no C11; read-out: dissociation constant (KD) Siglec-G/CD47. Also noted: species or system mouse. On the procedure: To examine the direct interaction between recombinant mouse (rm)Siglec-G (Cat. No. 10103-SL-050, R&D Systems, Minneapolis, MN) and rmCD47 (Cat. No. AB231160, Abcam, Cambridge, UK), surface plasmon resonance (SPR), using OpenSPR (Nicoya, Ontario, Canada), was performed. HS-Carboxyl sensor was used; rmCD47 was immobilized on the sensor surface; rmSiglec-G was in the reaction buffer, working as an analyte. Binding reactions were performed in PBS 0.05% P20, pH7.4. The carboxyl sensor was first cleaned by injecting 150 µL of 10 mM HCl, followed by injection of 150 µL of the mixture of 1 aliquot of N-ethyl-N′-[3-[…]]-carbodiimide (EDC) and 1 aliquot of N-hydroxysuccinimide (NHS) to activate the sensor surface. […] To evaluate the binding, the analyte ranging from 100 nM, 250 nM and 500 nM were injected into flow cell-1 and flow cell-2, and the real-time interaction data were analyzed by TraceDrawer (Nicoya). […] For peptide C11 efficacy on Siglec-G binding to CD47, with the same setting as Siglec-G binding with CD47 on HS-carboxyl sensor, peptide C11 at 1 µM preincubated with concentrations of rmSiglec-G 100 nM, 250 nM & 500 nM for 30 minutes and then injected into flow cell-1 and flow cell-2, and real-time interaction were analyzed ab TraceDrawer (Nicoya). […]

In experiment [3] the target is B1. The experiment in a line: SPR; same setting as a1 (rmCD47 immobilised on HS-carboxyl sensor); peptide C11 at 1 µM preincubated for 30 minutes with rmSiglec-G at 100, 250 and 500 nM, then injected. Conditions: both partners purified.

Take B1: the Kd in experiment [1] was found to be 10.8 nM. Consider B2, for which, in experiment [2], the Kd was 10.8 nM. In addition, in experiment [3], the “KD in the presence of 1 µM C11” value was 155 nM.

(Values after article PMC12187842, “A novel molecule targeting neutrophil-mediated B-1a cell trogocytosis attenuates sepsis-induced acute lung injury” (Frontiers in Immunology, 2025).)
